Measured values reported in paper PMC7082139, “Molecular Mechanisms of Phosphate Stress Activation of Pseudomonas aeruginosa Quorum Sensing Systems”.

Key:
[1] = biological target: PhoB(D54A) (Pseudomonas aeruginosa PAO1, UniProt P23620 1-229, D54A); experiment: EMSA; settings: protein: recombinant; tags: C-terminal His (pET-28b); chain copies: 2; label: biotin 3'-end; blunt
[2] = biological target: T1, PhoB (Pseudomonas aeruginosa PAO1, UniProt P23620 1-229); experiment: EMSA; settings: protein: recombinant; tags: C-terminal His (pET-28b, NcoI-XhoI); chain copies: 2; label: biotin 3'-end; blunt
T1 sequence: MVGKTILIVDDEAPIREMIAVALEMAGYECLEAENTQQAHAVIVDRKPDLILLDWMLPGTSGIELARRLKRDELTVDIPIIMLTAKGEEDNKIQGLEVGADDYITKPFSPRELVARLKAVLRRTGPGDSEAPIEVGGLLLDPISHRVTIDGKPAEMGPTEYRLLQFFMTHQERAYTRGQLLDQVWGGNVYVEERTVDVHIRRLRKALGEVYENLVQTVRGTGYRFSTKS

[3] = biological target: RsaL (Pseudomonas aeruginosa PAO1, UniProt Q9X7H4 1-80); experiment: EMSA; RsaL-specific shift; displaced by increasing PhoB (competes at 3 uM); settings: protein: recombinant; tags: C-terminal His (pET-28b); chain copies: 2; label: biotin 3'-end; blunt

B1: lasI promoter (dsDNA)
DNA 1: TGCTCTGATCTTTTCGGACGTTTCTTCGAGCCTAGCAAGGGTCCGGGTTCACCGAAATCTATCTCATTTGCTAGTTATAAAATTATGAAATTTGCATAAATTCTTCAGCTTCCTATTTGGAGGAAGTGAAG
DNA 2: CTTCACTTCCTCCAAATAGGAAGCTGAAGAATTTATGCAAATTTCATAATTTTATAACTAGCAAATGAGATAGATTTCGGTGAACCCGGACCCTTGCTAGGCTCGAAGAAACGTCCGAAAAGATCAGAGCA
Q: Does B1 bind [1]?
A: binds

Q: Does B1 bind [2]?
A: binds

Q: Does B1 bind [3]?
A: binds

B2: P1 (upstream of pho box) (dsDNA)
DNA 1: TAGCAAGGGTCCGGGTTCACCGAAATCTATCTCATTTGCTA
DNA 2: TAGCAAATGAGATAGATTTCGGTGAACCCGGACCCTTGCTA
Q: Does B2 bind [2]?
A: no binding

B3: P1+P2 (dsDNA)
DNA 1: TAGCAAGGGTCCGGGTTCACCGAAATCTATCTCATTTGCTAGTTATAAAATTATGAAAT
DNA 2: ATTTCATAATTTTATAACTAGCAAATGAGATAGATTTCGGTGAACCCGGACCCTTGCTA
Q: Does B3 bind [2]?
A: binds

B4: P3 (downstream of pho box) (dsDNA)
DNA 1: TTGCATAAATTCTTCAGCTTCCTATTTGGAGGAAGTGAAG
DNA 2: CTTCACTTCCTCCAAATAGGAAGCTGAAGAATTTATGCAA
Q: Does B4 bind [2]?
A: no binding

B5: P2+P3 (dsDNA)
DNA 1: GTTATAAAATTATGAAATTTGCATAAATTCTTCAGCTTCCTATTTGGAGGAAGTGAAG
DNA 2: CTTCACTTCCTCCAAATAGGAAGCTGAAGAATTTATGCAAATTTCATAATTTTATAAC
Q: Does B5 bind [2]?
A: binds
